In the supplement of paper PMC10567573 one finds protein stability index data, which are given here for 29 sequences.

The nature of the series: protein stability index of a GFP-peptide fusion (GPS, HEK-293T) (PSI 1-6); higher = more stable.
Setting [1] is: treatment: MLN4924 1 uM, 8 h, c terminus: a fixed tail appended.
[2] abbreviates: treatment: DMSO, c terminus: a fixed tail appended.

± gives the standard deviation.
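Further: 24-mer peptide tiles fused after GFP, lentivirally expressed, FACS-sorted into six equal bins by GFP/DsRed ratio, decoded by Illumina sequencing, PSI is the read-weighted mean bin number.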

For the sequence SKPGVYTSYKPYLNRDEEIIKQLQ [DENND6A], the protein stability index under setting [1] stood at 3.35 ± 0.42.
As to TNSDVLAQQFALMAPLLFNGCRSG [DCAF4], the protein stability index is, setting by setting: under setting [2], 2.23 ± 0.27; under setting [1], 2.14 ± 0.3.
For KIGFEIGIENEEDTSKQKKMETMY [ZNF449] the same measures were 4.08 ± 0.29 and 4.07 ± 0.22.
For PIMSGQGLAGFFASVAMICAIASG [SLC29A1] the same measures were 3.12 ± 0.21 and 3.13 ± 0.48.
For KPDGTVEQIGHILVSWLPRLNAYR [NET1] the same measures were 2.21 ± 0.52 and 2.1 ± 0.1.
As to LCSVGASKAVFLWNMDKYTMIRKL [WSB1], the protein stability index under setting [2] came to 2.34 ± 0.4 and the protein stability index under setting [1] came out at 2.17 ± 0.31.
Regarding NCLPKHLLHSVNQRFGSNNTSGS [KLHDC2], the protein stability index by setting is: (treatment: DMSO, c terminus: native) 2.69 ± 0.33; (treatment: MLN4924 1 uM, 8 h, c terminus: native) 2.99 ± 0.28.
Take MGSQGSPVKSYDYLLKFLLVGDSD [RAB40C]: the protein stability index is, setting by setting: under setting [2], 2.29 ± 0.28; under setting [1], 2.37 ± 0.099.
MGSLSSRVLRQPRPALAQQAQGAR [GMCL1] showed a protein stability index under setting [2] of 4.46 ± 0.28 and a protein stability index under setting [1] of 4.56 ± 0.18.
For QALEKIFLQKVAQMPQEEVELLPP [BRD3] the same measures were 2.63 ± 0.26 and 2.83 ± 0.4.
For the sequence SDTTHLVTLGGVLRQQLVVSKELR [KLHL13], the protein stability index amounted to 3.04 ± 0.069 under setting [2] and 3.1 ± 0.3 under setting [1].
Turning to CTLRQKLIFSPCSDCEEEEEEEEE [WEE1], the protein stability index was determined as 5.04 ± 0.27 under setting [2] and 5 ± 0.26 under setting [1].
For the sequence RASFWLALVGCVISDNPERYSTNL [EDNRA], the protein stability index by setting is: under setting [2], 2.85 ± 0.68; under setting [1], 2.97 ± 0.62.
Regarding KCVTMSSAVVQLYAADRNCMWSKK [WASL], the protein stability index by setting is: under setting [2], 2.87 ± 0.18; under setting [1], 2.88 ± 0.29.
For KKGSNGYGFYLRAGSEQKGQIIKD [PDZK1] the same measures were 3.19 ± 0.44 and 3.33 ± 0.27.
Take AYLELEITLSQEQIQKYTDCLQFY [RTN1]: the protein stability index under setting [2] was determined as 2.57 ± 0.4 and the protein stability index under setting [1] was 3.04 ± 0.86.
As for VRQAFQDQDDRRTWDGRPLTMAAT [GFOD1], the protein stability index runs as follows: under setting [2], 3.829 ± 0.031; under setting [1], 3.65 ± 0.26.
Regarding QAQQGRSSLVWLFSQLYLYSFISL [MCOLN1], the protein stability index runs as follows: under setting [2], 2.86 ± 0.46; under setting [1], 3.09 ± 0.25.
Take YKRSMDPGYPKMIAHDFPGIGHKV [MMP1]: the protein stability index was 2.55 ± 0.21 under setting [2] and 2.77 ± 0.094 under setting [1].
Turning to DSSNSMQTIQKTTTRRIVDGKVVS [KRT18], the protein stability index amounted to 3.61 ± 0.19 under setting [2] and 3.73 ± 0.31 under setting [1].
DTTTPTTSAITASRSESPPPLSDP [BRD3] registered a protein stability index under setting [2] of 5.45 ± 0.42 and a protein stability index under setting [1] of 5.57 ± 0.12.
For ILTIICYLGLPRLEFYRYYQQLKL [SLC29A1] the same measures were 3.31 ± 0.33 and 3.08 ± 0.56.
PAQSHTLQANDVFHKQQWFNCIRA [NET1] registered a protein stability index under setting [2] of 2.71 ± 0.38 and a protein stability index under setting [1] of 2.71 ± 0.3.
As to QSNLEPLSPMTASSFLSFAELFSY [FEM1A], the protein stability index under setting [2] stood at 2.26 ± 0.26 and the protein stability index under setting [1] was found to be 2.42 ± 0.3.
Consider YGQGRKIAEVCCTSIVYATEKKQT [KCTD10], for which the protein stability index by setting is: under setting [2], 2.83 ± 0.34; under setting [1], 3.1 ± 0.21.
Consider FRETEKSRWSEASRAILQRVQAAA [ALKBH7], for which the protein stability index under setting [2] was 3.21 ± 0.18 and the protein stability index under setting [1] is 3.3 ± 0.16.
With LEEAKQPKNDNVVIPECAHGGLYK [SMOC2], the protein stability index came out at 5.31 ± 0.14 under setting [2] and 5.146 ± 0.035 under setting [1].
For the sequence TTPSTSSSSSFDPSVFDGLGDLLM [SNAP91], the protein stability index by setting is: under setting [2], 3.32 ± 0.21; under setting [1], 3.48 ± 0.28.
In the case of KFPPEEELQREWLGNREALIQFLE [CPN1], the protein stability index reads like this: under setting [2], 3.69 ± 0.18; under setting [1], 3.8 ± 0.18.
